Measured values: patent US20220403048A1, “BINDING MOLECULES TO ARGINASE II [ARG2]” (Cancer Research Technology Limited, priority 2019, published 2022)

What was measured:
trimeric human ARG2 = molecular target: T1, trimeric human ARG2 (Homo sapiens, UniProt P78540); experiment: Human trimeric ARG2 enzyme inhibition assay (urea production); type: biochemical; conditions: clones in scFv format, FIG. 9; read-out: Trimeric human ARG2 EIA IC50
T1 construct: human ARG2 (aa23-354); His10 (C); made in house; host or cells: E. coli BL21 (DE3)
T1 sequence (P78540 23-354): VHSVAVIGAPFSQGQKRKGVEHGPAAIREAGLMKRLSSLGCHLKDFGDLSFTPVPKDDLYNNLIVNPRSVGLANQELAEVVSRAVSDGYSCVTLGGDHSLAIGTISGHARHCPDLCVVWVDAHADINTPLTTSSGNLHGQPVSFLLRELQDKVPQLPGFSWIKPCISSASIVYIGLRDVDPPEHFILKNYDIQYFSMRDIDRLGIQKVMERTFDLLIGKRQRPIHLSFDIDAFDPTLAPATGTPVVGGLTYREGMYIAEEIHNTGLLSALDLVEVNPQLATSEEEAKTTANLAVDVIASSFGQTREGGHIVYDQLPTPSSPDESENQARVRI
Experimental: Unpurified anti-ARG2 scFv fragments from periplasmic preparations were screened in an ARG2 enzyme inhibition assay using a Pherastar plate reader (BMG Labtech, Germany). In this assay, the ability of unpurified scFv to inhibit the enzymatic activity of trimeric ARG2 was determined by measuring the production of urea, the product of L-arginine turnover by ARG2.
Selection outputs were screened as unpurified bacterial periplasmic extracts containing scFv, prepared in 200 mM TES buffer pH 7.4, 0.5 mM EDTA and 0.5 M sucrose. 10 μl of unpurified scFv were added to a Greiner Bio-One® 384 well assay plate (Greiner Bio-one, UK; cat: 781901). This was followed by the addition of 5 μl of 1.6 μg/ml trimeric human ARG2 that had been diluted in 40 mM MnCl2, 100 mM tris-HCl, pH7.4 (4× enzyme buffer). […]
Urea was detected by the simultaneous addition of equal volumes of O-Phthaldialdehyde (1.5 mM O-Phthaldialdehyde, 7% H2SO4, 0.03% Brij L23) and N-(1-Napthyl)ethylenediamine (1.66 mM N-(1-Napthyl)ethylenediamine, 81 mM Boric acid, 21% H2SO4, 0.03% Brij L23) followed by an 18 minute incubation at room temperature before the colorimetric product was quantified on the Pherastar by measuring absorbance at 505 nm. […]
Data were analysed by calculating % maximum (max) control for each sample using the 505 nm absorbance data. % max control was determined according to equation 2. […]
IC50 values were determined by testing a dilution series of the purified scFv, prepared in TBS, in the ARG2 enzyme inhibition assay described in section 1.5, substituting the unpurified scFv periplasmic preparation with the purified scFv.
Background control wells were defined for each plate by the omission of substrate. […] Data were analysed by calculating % maximum (max) control for each sample. % max control was determined according to equation 1 detailed in section 1.5. […]
Data were again analysed by calculating % Max control values for each sample. […]

[1] = molecular target: T2, biotinylated recombinant human trimeric ARG2 enzyme (Homo sapiens, UniProt P78540, E275H/R327K); experiment: C0020187 IgG epitope competition HTRF assay; type: binding; conditions: clones in scFv format, FIG. 8; read-out: 18° IgG epitope competition assay IC50
T2 construct: His10 (after a GGG linker) (C); made in house; host or cells: E. coli BL21 (DE3)
T2 sequence (P78540 with tags, fused parts or gaps E275H/R327K): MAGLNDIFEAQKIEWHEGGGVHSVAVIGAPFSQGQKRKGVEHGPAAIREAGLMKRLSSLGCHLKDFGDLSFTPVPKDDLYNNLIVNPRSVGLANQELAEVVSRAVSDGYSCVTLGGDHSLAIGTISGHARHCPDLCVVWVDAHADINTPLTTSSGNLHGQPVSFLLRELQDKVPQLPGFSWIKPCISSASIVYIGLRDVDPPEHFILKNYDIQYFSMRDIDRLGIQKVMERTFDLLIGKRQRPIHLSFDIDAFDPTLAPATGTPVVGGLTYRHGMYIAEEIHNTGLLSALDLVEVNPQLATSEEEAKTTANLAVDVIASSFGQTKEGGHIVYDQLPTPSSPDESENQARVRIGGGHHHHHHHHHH
Source text: Two thousand and twenty four scFv chosen at random from selection rounds 3 and 4 of the targeted mutagenesis approach described in section 2.2, 2.3 and 2.4 were expressed in E. coli to produce unpurified periplasmic scFv. Those scFv capable of competing with C0020187 IgG for binding to recombinant human trimeric ARG2 enzyme (i.e., those scFv that bind at or near the epitope bound by C0020187 IgG) were elucidated in a competition format assay, using the HTRF™ platform. […]
A ‘Maximum’ binding signal was determined by analysing the binding of C0020187 IgG to biotinylated recombinant human trimeric ARG2 enzyme in the absence of competitor scFv. […] Finally, a ‘Background’ signal was determined by analysing the fluorescence generated in the absence of C0020187 IgG.
Unpurified periplasmic scFv were supplied in sample buffer consisting of 200 mM tris base, pH 7.4, 0.5 mM EDTA, and 0.5 M sucrose. […] Assay plates were sealed and then incubated overnight at room temperature in the dark, prior to measuring time-resolved fluorescence at 620 and 665 nm emission wavelengths on a fluorescence plate reader.
Data were analysed by calculating % Delta F values for each sample. % Delta F was determined according to equation 1. […]
Data were again analysed by calculating the % Delta F and % Control binding values for each sample. […]

B1: C0021142: anti-ARG2 antibody, VH SEQ ID NO: 232, VL SEQ ID NO: 237 (antibody, listed as Homo sapiens, V domains shown)
VH: EVQLLESGGGLVQPGGSLRLSCAASGFTFSSYAMSWVRQAPGKGLEWVSAHTHSPGSTYYADSVKGRFTISRDNSKNTLYLQMNSLRAEDTAVYYCARLRADLGLYMDLWGRGTLVTVSS
VL: QSVLTQPPSVSAAPGQKVTISCSGSSSNIGNHYVSWYQQLPGTAPKLLIYDNSERPSGVPDRFSGSKSGTSATLGITGLQTGDEADYYCGTWDSSLSALVFGGGTKLTVL
modifications: C0021142
IC50 (trimeric human ARG2): 97.6 nM | IC50 [1]: 57.8 nM
